The target of this assay is POTRA domains of Toc75 (Toc75-POTRA) (Chlamydomonas reinhardtii). Kind of assay: SPR.

One substance from doi:10.1101/2024.09.02.610899 can be followed below.

What is called Kd is a measure of binding affinity in units of concentration. Low readings indicate higher affinity, high ones lower affinity. As for “Tic22 (recombinant, His-tagged) (natural protein)”, the Kd was 5.22 µM.
